According to patent US20140271457A1 (AbbVie / Abbott, published 2014):

Target: Recombinant Human IL-13 (human, UniProt P35225 35-146, limits assumed)
Test: cell-based or functional assay

Recombinant Human IL-13, sequence (P35225 35-146 limits assumed): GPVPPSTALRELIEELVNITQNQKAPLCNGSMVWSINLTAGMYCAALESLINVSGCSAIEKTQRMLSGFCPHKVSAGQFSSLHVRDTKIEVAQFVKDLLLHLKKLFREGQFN

| IL-13 Neutralization Assay IC50 | Binder |
| --- | --- |
| 0.111 nM | DVD3017 (bispecific antibody, human IgG1, kappa) heavy: not shown light: DIQMTQSPSSLSASVGDRVTISCRASQDIRNYLNWYQQKPGKAPKLLIFYTSKLHSGVPSRFSGSGSGTDYTLTISSLQPEDIATYYCQQGLTPPLTFGGGTKVEIKRTVAAPDIQMTQSPSSLSASVGDRVTITCRASQDIENYLNWYQQKPGKAPKLLIYYTSRLQSGVPSRFSGSGSGTDFTLTISSLQPEDFATYFCQQGNTQPPTFGQGTKLEIKRTVAAPSVFIFPPSDEQLKSGTASVVCLLNNFYPREAKVQWKVDNALQSGNSQESVTEQDSKDSTYSLSSTLTLSKADYEKHKVYACEVTHQGLSSPVTKSFNRGEC |
| 0.132 nM | DVD3014 (bispecific antibody, human IgG1, kappa) heavy: not shown light: DIQMTQSPSSLSASVGDRVTISCRASQDIRNYLNWYQQKPGKAPKLLIFYTSKLHSGVPSRFSGSGSGTDYTLTISSLQPEDIATYYCQQGLTPPLTFGGGTKVEIKRTVAAPDIQMTQSPSSLSASVGDRVTITCRASQDIENYLNWYQQKPGKAPKLLIYYTSRLQSGVPSRFSGSGSGTDFTLTISSLQPEDFATYFCQQGNTQPPTFGQGTKLEIKRTVAAPSVFIFPPSDEQLKSGTASVVCLLNNFYPREAKVQWKVDNALQSGNSQESVTEQDSKDSTYSLSSTLTLSKADYEKHKVYACEVTHQGLSSPVTKSFNRGEC |
| 0.081 nM | DVD3016 (bispecific antibody, human IgG1, kappa) heavy: not shown light: DIQMTQSPSSLSASVGDRVTISCRASQDIRNYLNWYQQKPGKAPKLLIFYTSKLHSGVPSRFSGSGSGTDYTLTISSLQPEDIATYYCQQGLTPPLTFGGGTKVEIKRTVAAPSVFIFPPDIQMTQSPSSLSASVGDRVTITCRASQDIENYLNWYQQKPGKAPKLLIYYTSRLQSGVPSRFSGSGSGTDFTLTISSLQPEDFATYFCQQGNTQPPTFGQGTKLEIKRTVAAPSVFIFPPSDEQLKSGTASVVCLLNNFYPREAKVQWKVDNALQSGNSQESVTEQDSKDSTYSLSSTLTLSKADYEKHKVYACEVTHQGLSSPVTKSFNRGEC |

The next lines start with the binder.

| Binder | IL-13 Neutralization Assay IC50 |
| --- | --- |
| DVD3013 (bispecific antibody, human IgG1, kappa) heavy: not shown light: DIQMTQSPSSLSASVGDRVTISCRASQDIRNYLNWYQQKPGKAPKLLIFYTSKLHSGVPSRFSGSGSGTDYTLTISSLQPEDIATYYCQQGLTPPLTFGGGTKVEIKRGGSGGGGSGDIQMTQSPSSLSASVGDRVTITCRASQDIENYLNWYQQKPGKAPKLLIYYTSRLQSGVPSRFSGSGSGTDFTLTISSLQPEDFATYFCQQGNTQPPTFGQGTKLEIKRTVAAPSVFIFPPSDEQLKSGTASVVCLLNNFYPREAKVQWKVDNALQSGNSQESVTEQDSKDSTYSLSSTLTLSKADYEKHKVYACEVTHQGLSSPVTKSFNRGEC | 0.077 nM |
| AB399 (antibody, V domains shown) VH: EVQLVQSGAEVKKPGASVKVSCKASGYTFTSYWMHWVRQAPGQGLEWIGNINPKGGSNIYNEKFQGRVTMTRDTSISTAYMELSRLRSDDTAVYYCARLDYFGDSFDLWGQGTTVTVSS VL: DIQMTQSPSSLSASVGDRVTITCRASQGIRNYLNWYQQKPGKAPKLLIYYASNLEVGVPSRFSGSGSGTDYTLTISSLQPEDFATYYCQQDNRFPYTFGGGTKVEIKR | 0.075 nM |
| DVD2792 (bispecific antibody, human IgG1, kappa) heavy: not shown light: DIQMTQSPSSLSASVGDRVTISCRASQDIRNYLNWYQQKPGKAPKLLIFYTSKLHSGVPSRFSGSGSGTDYTLTISSLQPEDIATYYCQQGLTPPLTFGGGTKVEIKRTVAAPDIQMTQSPSSLSASVGDRVTITCRASQDISQYLNWYQQKPGKAPKLLIYYTSRLQSGVPSRFSGSGSGTDFTLTISSLQPEDFATYFCQQGNTWPPTFGQGTKLEIKRTVAAPSVFIFPPSDEQLKSGTASVVCLLNNFYPREAKVQWKVDNALQSGNSQESVTEQDSKDSTYSLSSTLTLSKADYEKHKVYACEVTHQGLSSPVTKSFNRGEC | 0.361 nM |
